From patent US20210038648A1 (THOMAS JEFFERSON UNIVERSITY, published 2021)

Legend:
[1] = target: T1, recombinant 6xHis-tagged hGUCY2C extracellular domain (6xHis-hGUCY2CECD) (human, UniProt P25092 24-430); experiment: ELISA; plate coated with 6xHis-hGUCY2CECD, 5F9-rFc titrated
T1 construct: extracellular domain; also called purified hGUCY2C extracellular domain; immobilized hGUCY2CECD protein; not shown: 6xHis tag

[2] = target: T2, human GUCY2C (hGUCY2C) on cells (human, UniProt P25092 24-1073); experiment: flow cytometry on CT26.hGUCY2C cells
T2 construct: whole, on cells; also called guanylyl cyclase C; GCC
T2 sequence (P25092 24-1073): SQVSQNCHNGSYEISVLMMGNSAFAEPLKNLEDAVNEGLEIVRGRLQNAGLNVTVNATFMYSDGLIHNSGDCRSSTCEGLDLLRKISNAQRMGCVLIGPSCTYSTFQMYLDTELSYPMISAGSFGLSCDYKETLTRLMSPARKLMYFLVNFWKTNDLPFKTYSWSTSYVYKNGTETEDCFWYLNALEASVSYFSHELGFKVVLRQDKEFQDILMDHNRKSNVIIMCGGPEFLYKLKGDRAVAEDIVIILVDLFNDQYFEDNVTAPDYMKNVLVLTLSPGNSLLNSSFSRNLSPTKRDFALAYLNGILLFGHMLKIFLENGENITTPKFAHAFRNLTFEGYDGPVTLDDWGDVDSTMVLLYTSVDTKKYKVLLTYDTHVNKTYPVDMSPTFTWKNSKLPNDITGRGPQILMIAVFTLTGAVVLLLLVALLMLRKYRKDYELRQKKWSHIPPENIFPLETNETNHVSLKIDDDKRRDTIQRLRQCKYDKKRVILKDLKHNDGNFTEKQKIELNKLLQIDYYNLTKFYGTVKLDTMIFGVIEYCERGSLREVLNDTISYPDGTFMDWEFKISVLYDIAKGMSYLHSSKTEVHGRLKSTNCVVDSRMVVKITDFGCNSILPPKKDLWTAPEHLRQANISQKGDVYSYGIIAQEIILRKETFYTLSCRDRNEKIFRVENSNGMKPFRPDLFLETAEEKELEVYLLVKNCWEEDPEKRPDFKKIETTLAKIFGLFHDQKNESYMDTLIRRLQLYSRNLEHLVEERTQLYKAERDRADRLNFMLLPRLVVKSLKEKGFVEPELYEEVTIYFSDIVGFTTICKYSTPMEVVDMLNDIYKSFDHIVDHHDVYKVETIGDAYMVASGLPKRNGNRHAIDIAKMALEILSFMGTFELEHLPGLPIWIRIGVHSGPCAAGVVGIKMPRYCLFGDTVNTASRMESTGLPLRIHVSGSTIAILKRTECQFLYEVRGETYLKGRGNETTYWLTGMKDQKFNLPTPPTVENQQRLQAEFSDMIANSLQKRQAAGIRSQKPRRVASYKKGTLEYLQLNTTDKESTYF
Source text: Cells were authenticated by the original suppliers and routinely authenticated by morphology, growth, antibiotic resistance (where appropriate GUCY2C and β-galactosidase expression, and pattern of metastasis in vivo and routinely screened for mycoplasma using the Universal Mycoplasma Detection Kit (ATCC, Cat. No. 30-1012K). Before injection into mice, cells were routinely cultured for <2weeks. The gene encoding human GUCY2C was codon-optimized and synthesized (Gene Art, Life Technologies) and cloned into the retroviral construct pMSCVpuro (Clontech). CT26.hGUCY2C and CT26.CL25.hGUCY2C were generated by transducing CT26 and CT26.CL25 cells with retroviral supernatants encoding hGUCY2C, followed by selection with puromycin. […] The single chain variable fragment (scFv) from the human GUCY2C-specific antibody 5F9 was cloned into the pFUSE-rIgG-Fc2 (IL2ss) plasmid (Invivogen), producing a 5F9 scFv fusion protein with rabbit Fc (5F9-rFc), 5F9-rFc was collected in supernatants of transfected 293F cells (Life Technologies), titrated in ELISA plates (Nunc-Immuno PolySorp) coated with BSA or recombinant 6×His-tagged hGUCY2C extracellular domain (6×His-hGUCY2CECD) protein purified under contract from HEK293-6E cells by GenScript and detected with HRP-conjugated goat anti-rabbit (Jackson ImmunoResearch). […]

T1 sequence (P25092 24-430): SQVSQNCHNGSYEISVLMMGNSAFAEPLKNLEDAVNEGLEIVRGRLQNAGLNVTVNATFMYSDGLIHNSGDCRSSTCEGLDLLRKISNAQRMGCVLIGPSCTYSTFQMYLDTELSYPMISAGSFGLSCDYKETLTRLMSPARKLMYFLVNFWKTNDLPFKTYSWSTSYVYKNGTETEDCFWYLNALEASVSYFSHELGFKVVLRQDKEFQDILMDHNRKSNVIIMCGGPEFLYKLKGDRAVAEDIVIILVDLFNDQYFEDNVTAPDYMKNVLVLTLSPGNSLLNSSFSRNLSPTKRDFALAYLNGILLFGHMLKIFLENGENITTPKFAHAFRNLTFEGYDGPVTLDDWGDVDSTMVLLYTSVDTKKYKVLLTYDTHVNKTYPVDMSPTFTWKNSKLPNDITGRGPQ

binding result [1]: binds
binding result [2]: binds
B1: 5F9 scFv fusion protein with rabbit Fc (5F9-rFc) (Fc fusion)
chain: EIVMTQSPATLSVSPGERATLSCRASQSVSRNLAWYQQKPGQAPRLLIYGASTRATGIPARFSGSGSGTEFTLTIGSLQSEDFAVYYCQQYKTWPRTFGQGTNVEIKASGGGGSGGGGSGGGGSGGGGSELQVQLQQWGAGLLKPSETLSLTCAVFGGSFSGYYWSWIRQPPGKGLEWIGEINHRGNTNDNPSLKSRVTISVDTSKNQFALKLSSVTAADTAVYYCARERGYTYGNFDHWGQGTLVTVSS
notes: Secreted from transfected 293F cells and used as supernatant; also called recombinant 5F9 antibody; 5F9 antibody; not shown: rabbit IgG Fc from plasmid pFUSE-rIgG-Fc2 (IL2ss) (Invivogen)
